This note sets out measurements from PMC9167300, “The LCK-14-3-3ζ-TRPM8 axis regulates TRPM8 function/assembly and promotes pancreatic cancer malignancy” (Cell Death & Disease, 2022).

This assay addresses T1, His-LCK fusion (human, UniProt P06239 1-509).
T1 construct: human LCK cDNA subcloned into pET28a(+); also called His-fused LCK; source: E. coli BL21, purified (Ni-NTA agarose)
In words: pull-down; protein-protein interaction assay in vitro: 150 μg His-LCK eluted from Ni-NTA incubated with GST or GST-M8C bound to GST-agarose beads, 1 h at room temperature; Western blot. The note with it: both partners purified.

T1 sequence (P06239 whole entry, the tested form may be a part): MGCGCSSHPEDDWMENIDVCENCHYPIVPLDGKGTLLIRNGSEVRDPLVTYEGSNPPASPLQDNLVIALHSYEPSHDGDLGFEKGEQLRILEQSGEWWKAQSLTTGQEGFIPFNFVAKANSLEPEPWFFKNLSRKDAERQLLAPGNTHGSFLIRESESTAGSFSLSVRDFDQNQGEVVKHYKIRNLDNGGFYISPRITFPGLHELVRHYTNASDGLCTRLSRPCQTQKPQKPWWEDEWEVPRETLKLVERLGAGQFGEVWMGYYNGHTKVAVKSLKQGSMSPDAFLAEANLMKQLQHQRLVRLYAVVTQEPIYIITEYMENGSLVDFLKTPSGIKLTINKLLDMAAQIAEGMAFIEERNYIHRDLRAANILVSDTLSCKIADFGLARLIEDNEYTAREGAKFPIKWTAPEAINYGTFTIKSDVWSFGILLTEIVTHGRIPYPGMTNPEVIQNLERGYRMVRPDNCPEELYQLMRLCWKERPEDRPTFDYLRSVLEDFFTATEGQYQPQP

B1: GST-tagged C-terminus of TRPM8 (GST-M8C) (domain or fragment, rat, UniProt Q8R455 980-1104, looked up)
chain: GYTVGIVQENNDQVWKFQRYFLVQEYCNRLNIPFPFVVFAYFYMVVKKCFKCCCKEKNTESSACCFRNEDNETLAWEGVMKENYLVKINTKANDNAEEMRHRFRQLDTKLNDLKGLLKEIANKIK
notes: C-terminus of rat TRPM8 (M8C), amino acids 980-1104, in pGEX-4T-1; source: E. coli BL21, purified (glutathione beads)
For B1, the binding result is reported as “binds”.
